Measured values published in patent US20210147534A1 (RECEPTA BIOPHARMA S A, published 2021).
No end group written: not given here.

Target: T1, recombinant mouse CD74 (mouse, UniProt P04441 56-279, limits assumed)
T1 construct: Bought (Abcam); also called recombinant CD74
T1 sequence (looked up): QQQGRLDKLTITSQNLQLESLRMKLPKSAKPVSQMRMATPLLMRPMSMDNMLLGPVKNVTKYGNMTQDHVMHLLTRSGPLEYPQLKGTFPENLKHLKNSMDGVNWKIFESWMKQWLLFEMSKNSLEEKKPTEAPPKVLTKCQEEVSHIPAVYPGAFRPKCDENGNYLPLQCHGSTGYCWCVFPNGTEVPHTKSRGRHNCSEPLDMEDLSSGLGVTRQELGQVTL
Test: chemiluminescent dot-blotting, peptide on nitrocellulose, recombinant CD74 in solution
Description: Membranes were washed and incubated with primary mouse anti-CD74 or anti-MIF (both from Abcam, Cambridge, UK), washed and incubated with secondary anti-mouse IgG-HRP. Immunoreactivity was determined using the ECL Western Blotting Substrate (Millipore, Billerica, Mass.), and signal was detected in a trans-illuminator Uvitec, Cambridge, UK).

B1: Rb10A1 (peptide)
peptide: AARGETARATFAYWGQG-NH2
notes: Linear peptide; N-terminal Cys of Rb10 replaced by alanine; also called A1C
B1: no binding.
